Results from the supplement of paper PMC11502859.

system: HEK293T; assay: median enrichment of reporter reads in eGFP-reduced (low/intermediate) vs eGFP-high sorted cells (eGFP-extension fusion abundance) (ratio); higher = stronger loss of eGFP-fusion protein abundance (more destabilising extension)
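Further: lentiviral eGFP-IRES-mCherry reporter pool sorted by FACS 96 h post-transduction, gated on mCherry-high cells, Illumina read counts normalized per million, median across four biological replicates.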

Compared with “YILNLVCRPSRGIKRLALVVKNKADSQTRSDFCPCSSFDVLSVALFLIASSTCKMLFTFCLG [DAB2]”, YILPEDKEKSKYCIGT [IRAK3] is higher in median enrichment: 7.19 for the first, 9.91 for the second.

Compared with YILYNCEINLR [OR4F4], YIMDWDILYFSC [UBA5] is higher in median enrichment: 5.6 for the first, 13 for the second.

Compared with YIMRHTV [TBC1D32], YIMYYPDLVGKVLS [OPRM1] is higher in median enrichment: 5.87 for the first, 11.7 for the second.

Compared with YINEENKRS [CLEC7A], YINKIRRGSETEKEKAKDWFVCLISFC [NR2F2] is higher in median enrichment: 0.716 for the first, 9.01 for the second.

Compared with YIPNILGL [RASEF], YIPVSIQKSNKKFSVKCAILLCVL [RPL11] is lower in median enrichment: 10.1 for the first, 0.764 for the second.

Compared with YIRRHH [IFITM2], YISHQKLRQEKQK [RASSF8] is lower in median enrichment: 9.67 for the first, 3.3 for the second.

YISHVNLPER [MSMO1] and YISLFVSMRCPTGPI [CADM1] are the same in median enrichment: 15.7 for the first, 15.7 for the second.

Going from YISTLFLKLTFQCH [GPNMB] to “YIWLFMHCGMCSSFSVFRYKVLYQSVIYKVYQHKCW [MLH1]”, the median enrichment rises from 7.14 to 23.5.

First: YKCEECGKAFKWSSHLTIH [ZNF93]
Second: YKCGKAFTKSSYCVQHLKFNTEQMQYKCNDSGRTFIILEGL [ZNF736]
The median enrichment of the first is lower: 6.32 for the first, 22.3 for the second.

Compared with YKE [DCAF17], “YKGAEEGWSGWAGGPTSSPQHLPPTQLGQRGQDVCLPLRDRCLCPHTATGV [SEMA3G]” is higher in median enrichment: 0.608 for the first, 2.63 for the second.

First: YKGRAQQCK [IRX2]
Second: YKHESFIHTFRQAREVQQVTAKGGNCSHLPPILPAENPDCIQCPQCSHHFAPKVAEQHIPKCKTIKNCLPPLRKHYS [ZC2HC1C]
The median enrichment of the first is higher: 0.955 for the first, 0.72 for the second.

Going from YKISPLPACCKVT [CAMKK2] to YKKEKKAKKKK [IQCA1], the median enrichment falls from 11.5 to 0.422.

Going from YKKRCCLGLVGGACFS [HIGD1A] to YKKRLLLGLDR [Degron FEM1B], the median enrichment rises from 3.33 to 9.09.

Compared with YKKVGTMRGRGL [Degron APPBP2], YKL [OR6C2] is lower in median enrichment: 16.9 for the first, 0.678 for the second.

First: YKLGLCFLLVTEDWVAP [SOAT1]
Second: YKLLKRFICVLLTRFFLFVACFGN [SKIL]
The median enrichment of the first is lower: 9.15 for the first, 9.42 for the second.

First: YKLVLCSG [ZDBF2]
Second: YKMIVLTPYTNVLLLALIKLLEG [MAX]
The median enrichment of the first is lower: 6.14 for the first, 15.5 for the second.

First: YKNQNGLR [ADGRB3]
Second: YKP [ATP6V1A]
The median enrichment of the first is higher: 0.651 for the first, 0.175 for the second.

First: YKPGGSSHSCSQGHWARAAHAQEARFEGICEAAACCCTCAFSLPLPSLSSHGGVRSCPCSESTFPAIPGAGGACASAIPCDQA [TSSK6]
Second: YKPQAPLADGRQGEKRRSSWTSETTVELRREAT [IGFL3]
The median enrichment of the first is higher: 3.81 for the first, 1.72 for the second.

Going from YKPRDGGCLAMAGR [DMRTC2] to YKRFNFQ [IGSF6], the median enrichment rises from 0.676 to 1.72.

Going from YKRIS [KCNN2] to “YKRPWSGPTLRPSISQALSAVIPRTQWAPCTPVSGAVRLGYIVNSASTERLALRASSESSSSGTPPKPTPPGTPLSGIPAKRR [PRRT1]”, the median enrichment rises from 1.05 to 1.15.

Compared with YKRSLADPSL [KCNQ3], YKSDCSVRIYIYRFQSNKWGNR [CCNG2] is higher in median enrichment: 0.769 for the first, 4.91 for the second.

Going from YKSKNIFLKVMMHSFGW [CENPW] to YKTPCSAILISYR [APOO], the median enrichment rises from 4.27 to 4.54.

Going from YKVPLANCLEAQHNPKALFR [HIST1H1E] to “YKWQQNLTPRPANSASLVTLFWLLDGFHSSLGFVCEYCLLCFVFNCNG [OR7E24]”, the median enrichment rises from 6.29 to 6.78.

Going from YKYTLTERDNRQRGSVAEDPLLCLY [TNIP3] to “YLARPDPLGPFFFADNHCPAASGTSGSQGTQSSLLAVDFPLLLEPPIKEIQRDSCRPEAEHTFMAGALRGVLDPAPGDTIHFY [PLOD1]”, the median enrichment rises from 7.19 to 9.08.

First: YLCISRAHTYIVAYSQHGSRPALLI [RANBP9]
Second: YLDHDLVQ [TRAT1]
The median enrichment of the first is higher: 2.61 for the first, 0.456 for the second.

Compared with YLDQSKCGLNLLVDQC [SLC25A3], “YLEQMETPWGAGSGSPAPSQTLQCQKQQQNETQPPPTTATTRRMIQQVFLKN [GRIA1]” is lower in median enrichment: 13.3 for the first, 2.38 for the second.

Going from YLEYIFV [CEP192] to YLFFFFLIEVLVL [FAM160A1], the median enrichment rises from 4.56 to 25.1.

Compared with “YLICTNMTQMFSKITGKPLTSICVSQLTEKKITCSSFIISHWNII [SENP7]”, YLISYYIF [PCDHB8] is higher in median enrichment: 3.44 for the first, 5 for the second.

Compared with YLKKTVLSAMTLYIKGVLFC [PLAAT3], YLKNMYPL [ERCC5] is lower in median enrichment: 13.8 for the first, 7.72 for the second.

Compared with YLL [TOR1AIP2], YLLCVVGGGYYLYQPSVCHEPVGKSDIFII [IL1RAP] is higher in median enrichment: 3.21 for the first, 6.77 for the second.

Compared with YLLKYRNLNNVKLD [TJP1], “YLRTLPFFPLSSLPLPFLPIYPFPSSKSTQGEENKMTTQDLVAKILHSKSSFV [FGF12]” is higher in median enrichment: 4.45 for the first, 9.45 for the second.

First: YLSGLSVL [MCOLN3]
Second: YLSNH [WDR27]
The median enrichment of the first is higher: 19 for the first, 3.24 for the second.

Going from YLSSAPVVVVVLNFRI [ZSCAN21] to YLSVYLSIYLSIYLSIYVYLSCIYTRL [AK9], the median enrichment falls from 16.1 to 9.52.

Compared with “YLTFPAESVARGKVTIYAEMICLVPILCSTSVFQKFLINKLI [CDCA2]”, “YLTLHLSSGCQGRRRSQQAPLFCSLSPEAEHMFSEKLLLRTF [RAF1]” is higher in median enrichment: 4.06 for the first, 6.79 for the second.

Going from YLTLPIS [OR5AS1] to YLVIHAFFPGQGSRVTRPPETSQEARALFK [SNX19], the median enrichment falls from 15.4 to 13.6.

First: YLYHYSRSSSQHHLLATWDV [GCG]
Second: YMCPTDPGTFLPQCCACKYTVKLSLYHFDRGED [GLRA2]
The median enrichment of the first is higher: 12.4 for the first, 11.1 for the second.

Compared with YMFVWN [STKLD1], YMHCSGS [STT3B] is lower in median enrichment: 6.18 for the first, 2.33 for the second.

Going from YMILKPETI [TRIP11] to YMKLDI [ARF4], the median enrichment falls from 4.3 to 1.7.

Going from YMQKWIK [KCNMB2] to YMQRPRRAALTTRFIF [EWSR1], the median enrichment falls from 11.9 to 6.81.

First: YMSEHGLSQACLHGIRLATPARPPGWFFSS [TJP2]
Second: YMSEVQTLKKLAF [SLC7A13]
The median enrichment of the first is higher: 4.38 for the first, 4.37 for the second.

Compared with YMSF [PPP1CC], YNEK [PJVK] is lower in median enrichment: 1.47 for the first, 0.295 for the second.

Compared with YNFFHLRNYCDL [CHD6], “YNIRKKATSMVINGRKAGELDSAVLLTGELWSSAPVYGPCRLVGWQMLA [DPPA4]” is lower in median enrichment: 19.1 for the first, 10.4 for the second.

Compared with YNIVYVFCHL [KIAA1586], YNIYKLWVLDGLS [RBM41] is lower in median enrichment: 8.8 for the first, 3.9 for the second.

Compared with YNIYSYDKDT [HCRTR2], YNLIASTLKDKTSNSHLL [KIF9] is lower in median enrichment: 5.01 for the first, 1.28 for the second.

Compared with YNLLLIIISEIISGSPWTTS [ZIC5], “YNMTYSYSSLLSPLYSFFFNIFMTFKSLLYSLARKCTFFLLV [ADAMTS12]” is lower in median enrichment: 5.16 for the first, 4.84 for the second.

Going from YNPFALMSLPFVT [SIX2] to “YNQGSVTPCHAPTVEIPPLLKFFMVVSLPGSLMLS [KCNS1]”, the median enrichment rises from 1.36 to 11.7.

Compared with YNSEVNVLKYNY [TEFM], “YNWKLSTHRKRSLLGRWPPQCLEKNLWASTAAREELLQARGRKGENTNSLVVSGVGG [S1PR1]” is higher in median enrichment: 0.662 for the first, 5.24 for the second.

Going from YNYLLNQDKHAFLLPWFYL [NCKAP1] to YNYLSPL [FAM104B], the median enrichment falls from 8.38 to 2.29.

Going from “YPAALPGGGGIKRPESPGCPRRDANHPVLSTGPSSLFHPHFC [E2F7]” to YPAHLASLFSF [ECD], the median enrichment falls from 6.7 to 2.85.

Compared with YPALLPSDGHPSRGLSHTVPLRSA [CTDSP2], “YPCTISPSSFLGQPGPALVCGDWRDQERVWRPPEGCCLPGLQ [MLST8]” is lower in median enrichment: 9.24 for the first, 5.76 for the second.

First: YPDPHRCCDLFVLSTVE [FGF14]
Second: YPGASWLRLAPSGHLPWSDPFQMKCGDIDLFFFFFETEFHSCCPVWSAMAQSQLTATSASWVQAILLPQPPK [SPC24]
The median enrichment of the first is higher: 9.33 for the first, 7.7 for the second.

Compared with YPGGRVAAGGACAEAS [SLC7A5], YPGSFYGHE [ZNF700] is lower in median enrichment: 1.04 for the first, 0.482 for the second.

Compared with YPHRGAGEGALDN [TMEM203], YPILKVALFLLDLAELVAWGVGEIKRT [SPCS2] is higher in median enrichment: 0.51 for the first, 11.7 for the second.

Going from YPLLKECEI [NCOA1] to YPLRDSRCYLSSVPHFL [SYT9], the median enrichment rises from 0.498 to 12.

First: YPNIIQGTEIKELRFKHKCLAQTYL [EEF1E1]
Second: YPPAQPRTDMNIGWTEVASV [PIP4K2A]
The median enrichment of the first is higher: 7.38 for the first, 5.83 for the second.

Compared with YPPQGPAPPRPGE [WFIKKN1], YPQPPPHHPLPKSSACSPGERTAGLSY [COTL1] is higher in median enrichment: 0.52 for the first, 11.5 for the second.

Compared with YPSL [KCNK2], YPSLCHWVECAFRAS [ARHGEF6] is higher in median enrichment: 0.357 for the first, 7.57 for the second.

Going from YPSQGCSSVPSRRMWQGRAGSE [SERPINA4] to YPSVLHTARGPRMPRPPLAPAGREPDHLPC [CHI3L1], the median enrichment rises from 0.599 to 2.05.

First: YPTVGPGWAGRSWCVTGCPGRHVLALTVPGLSLPAAAIQEIVATVTLTSSAWFLPLPSGVDKGPLIIFSFVFL [DVL2]
Second: YPV [HNRNPUL1]
The median enrichment of the first is higher: 7.88 for the first, 0.542 for the second.

First: YPVGGWRVCHSNLIESRKTEGNAAAN [OR52E8]
Second: YPVLEGTGGIIFNDLLN [NXPE3]
The median enrichment of the first is higher: 4 for the first, 1.65 for the second.

Going from YPVTL [SMCO1] to “YPVTPRDCLVQVVAAGGTHAAPRSEQTLPCRPAPAGPDGPLWRLDLLGQAALGLSAPSCLSRCDRARPKPGCTLLDWASLHCL [MLST8]”, the median enrichment rises from 0.416 to 4.58.

Compared with YPWALPCYPFSPLEVPNLLHPLPLL [PPRC1], “YPWPPGLASSFWVSQAPLALTPLARSPSFRSS [PPFIA4]” is higher in median enrichment: 3.39 for the first, 16 for the second.

First: YPYGE [PRKCH]
Second: YQAQLQKDLTCAHKILL [LCN6]
The median enrichment of the first is lower: 0.563 for the first, 7.65 for the second.

First: YQFCPTSLSPQPLQSSVTCCGLYSGSALATSPNISSSFSPSDLTVQ [JOSD1]
Second: YQGPLDL [OR56A3]
The median enrichment of the first is higher: 7.58 for the first, 0.714 for the second.

Compared with “YQGPSQYPWRTREIAPYRQWRGVPSHRQEPEAQAAHPFQPSRTHTDGREGGHSMNYC [XYLT2]”, “YQHWPSVFLGGTSQEPLPALLESQRGQEAVAGASTQLG [GDF5]” is lower in median enrichment: 1.21 for the first, 1.15 for the second.

First: YQIYRVEGLIGEGRSSGSTQELDWKRSL [SON]
Second: YQLFAISCTQTCVIYAPGNQ [MAST2]
The median enrichment of the first is higher: 9.11 for the first, 7.02 for the second.

First: YQLINLE [BRWD3]
Second: YQNNGFL [GNL3]
The median enrichment of the first is lower: 0.91 for the first, 1.22 for the second.
